Entries after “also recorded” stand apart in the source; their conditions may differ. Where no end group is shown, it is not given here. [ ]: non-standard residue; d: D form. pT = C[C@@H](OP(=O)(O)O)[C@H](N)C(=O)O; pS = N[C@@H](COP(=O)(O)O)C(=O)O

In one series the test system is p38 MAPK. The note with it: SB203580 2.5 μM. How it is done:
The reactions were terminated after 30 min at 30° C. by addition of SDS-PAGE sample buffer, separated by SDS-PAGE and transferred to nitrocellulose. Protein was visualized by staining with PonceauS and incorporated ^32P was visualized by autoradiography. In specific experiments, whole cell extracts were first depleted of Akt prior to p38 MAPK immunoprecipitation by being pre-incubated with anti-Akt antibody prebound to protein A-Sepharose followed by one incubation with protein A-sepharose alone.

In series [1] the test system is phospho-Ser^9 GSK3β in 293T cells. Kind of series: Western blot of phospho-Ser^9 GSK3β in treated 293T cells. Conditions: 40 minutes, SB203580 5 μM, Wortmanin 1 μM, FIG. 7. It counts as cell-based. How it is done:
(§1) Thymocytes were isolated from wildtype, Rag^−/− or MKK6(Glu) transgenic mice.
(§2) Whole cell extracts were prepared in Triton lysis buffer (TLB) as previously described (25, 26). Nuclear extracts were made from cells as previously described (27). Immunoprecipitations and Western blotting was performed as described in (8). Anti-Akt, anti-p38 MAPK, anti-Lef, anti-c-Myc and anti-Histone (Santa Cruz Biotechnology, Santa Cruz, Calif.), anti-GSK3β, anti-β-catenin, anti-phospho-p38 MAPK and antiphospho-S^9 (Cell Signaling, Beverly, Mass.) and Anti-Flag (Stratagene, La Jolla, Calif.) were used for Western blot analysis. […] Anti-Akt, anti-p38 MAPK and Anti-GSK3β were used for immunoprecipitations. Anti-rabbit-HRP, anti-mouse-HRP (Jackson ImmunoResearch Laboratories, West Grove, Pa.) and anti-goat-HRP (Santa Cruz Biotechnology, Santa Cruz, Calif.) were used as secondary antibodies.

Series [2] has as its system phosphorylation of GSK3β at Ser^389. Kind of series: Western blot of phospho-Ser^389 in mouse GSK3β-transfected 293T cells. Conditions: FIG. 4D. It counts as cell-based. How it is done: (§3) Thymocytes were isolated from wildtype, Rag^−/− or MKK6(Glu) transgenic mice. 293T cells were transiently transfected with the indicated expression constructs using calcium phosphate. When specified, 293T cells were treated with SB203580 (5 μM) and Wortmanin (1 μM) (Calbiochem, San Diego, Calif.). Wildtype, GSK3α^−/− and GSK3β^−/− ES cells (17), as well as WT and MKK3^−/−MKK6^−/− MEF (22) have been previously described, and were also treated with SB203580 as described above for the indicated periods of time. For in vivo inhibition of p38 MAPK, wildtype mice were intraperitoneally (i.p.) injected with SB203580 or vehicle alone, and after 18 hours brain and thymocytes were harvested to prepare whole cell lysates.
(§4) Whole cell extracts were prepared in Triton lysis buffer (TLB) as previously described (25, 26). Nuclear extracts were made from cells as previously described (27). Immunoprecipitations and Western blotting was performed as described in (8). Anti-Akt, anti-p38 MAPK, anti-Lef, anti-c-Myc and anti-Histone (Santa Cruz Biotechnology, Santa Cruz, Calif.), anti-GSK3β, anti-β-catenin, anti-phospho-p38 MAPK and antiphospho-S^9 (Cell Signaling, Beverly, Mass.) and Anti-Flag (Stratagene, La Jolla, Calif.) were used for Western blot analysis. The phospho-S^389 GSK3β antibody was made by Proteintech, Chicago, Ill., using N-C-ARIQAAA(phos-S)PPANATA (SEQ ID NO:87) for immunization. […]
Background: Immunoblotting shows a protein as a band on a membrane.

For series [3], the system named is phosphorylation of endogenous GSK3β at Ser^389. Put plainly: Western blot of phospho-Ser^389 of endogenous GSK3β in MEFs and ES cells. In kind it is cell-based, mouse. The note with it: FIG. 4E-F. How it is done:
as §3, §4

For a further series, the system named is β-catenin. Put plainly: Western blot of β-catenin in 293T cells transfected with GSK3β, p38 and MKK6. In kind it is cell-based. Conditions: FIG. 4D. As for the experimental part:
as §3, §4

In a further series the test system is phospho-Ser^389 GSK3β. Put plainly: In vivo inhibition of p38 MAPK, phospho-Ser^389 GSK3β in thymocytes and brain. Conditions: wildtype mice i.p., 18 hours, FIG. 4L. On the set-up: species or system mouse. How it is done:
as §1, §2

In series [4] the target is T1, GST-GSK3β (Homo sapiens, UniProt P49841).
T1 construct: made in house
Conditions: references 20, 21; cited from earlier work.

Another series relates to GSM substrate peptide. Kind of series: Specific activity of active GST-GSK3β wildtype and mutants. In kind it is biochemical. How it is done: (§5) Active GST-GSK3β and GST-GSK3β-T^43A and GST-GSK3β-T^390 mutants were expressed and purified as described in (29). The specific activity of the wildtype and the mutants was determined using the GSM substrate peptide (Upstate, Lake Placid, N.Y.) and were as follows: GST-GSK3β (91 μmol/μg×min) and GST-GSK3β-T^43A (53 μmol/μg×min) and GST-GSK3β-T^390A (65 μmol/μg×min). In vitro GSK3β kinase assays were performed by incubating purified active wildtype GST-GSK3β or GST-GSK3β-T^43A and GST-GSK3β-T^390A mutants (400 ng) at 30° C. for 10 minutes in kinase buffer supplemented with 1 mM ATP containing [γ-^32P] ATP and GSM substrate peptide (62.5 μM) (Upstate, Lake Placid, N.Y.). Reactions were terminated by spotting onto P81 filters. Filters were washed extensively and counted in a scintillation counter. To examine the effect of p38 MAPK and Akt on GSK3β activity, purified active GSK3β or mutants were preincubated for 15 minutes at 30° C. with 500 ng recombinant active p38 MAPK or active Akt (Cell Signaling, Beverly, Mass.) prior to performing the GSK3β activity assay as described above.

In series [5] the target is T1, GST-GSK3β. Put plainly: In vitro GSK3β kinase assay with inhibitory peptides (GSM substrate). Conditions: for GSK3β activity in the presence of peptide: in vitro kinase reaction, FIG. 3G. In kind it is biochemical. As for the experimental part: as §5
For peptide inhibition assays, Phospho-S^9 (GRPRTTS(PO3H2)FAE) (SEQ ID NO:95) (20). Phospho-[…] (RIQAAAST(PO3H2)PTN) (SEQ ID NO:7) and non-phospho-T^390 (RIQAAASTPTN) (SEQ ID NO:96) peptides were synthesized and purified by UVM protein Core Facility. In vitro kinase assays were performed with purified GST-GSK3β (400 ng) in Kinase buffer supplement with 1 mM ATP containing [γ-^32P] ATP and the indicated concentrations of GSM and inhibitory peptide.

Another series addresses T2, GSK3β-T^390A mutant (Homo sapiens, UniProt P49841, T390A).
T2 construct: made in house
Kind of series: GSK3β activity after preincubation with active p38 MAPK or Akt. The note with it: preincubated 15 minutes at 30° C. with 500 ng kinase; FIG. 3F. In kind it is biochemical. As for the experimental part: as §5

For the next series, the target named is T3, GSK3β-T^43A mutant (Homo sapiens, UniProt P49841, T43A).
T3 construct: made in house
The series is described as above. It counts as biochemical. The note with it: preincubated 15 minutes at 30° C. with 500 ng kinase; FIG. 3E. As for the experimental part:
as §5

The target of another series is T4, wild-type GSK3β (Homo sapiens, UniProt P49841).
T4 construct: made in house
The series is described as above. It counts as biochemical. The note with it: preincubated 15 minutes at 30° C. with 500 ng kinase; FIG. 3D. As for the experimental part: as §5

Another series has as its target GSK3α (Homo sapiens, UniProt P49840). Put plainly: In vitro GSK3α kinase assay after preincubation with activated p38 MAPK. In kind it is biochemical. Conditions: pre-incubated 15 min; FIG. 12. As for the experimental part:
Recombinant kinase-active GSK3α was pre-incubated in the reaction buffer alone (GSKα), with activated p38 MAPK or activated Akt (15 min). In vitro GSK3α kinase assays were then performed using GSM as the substrate. Error bars represent SD (n=3).

T1 sequence (P49841 whole entry): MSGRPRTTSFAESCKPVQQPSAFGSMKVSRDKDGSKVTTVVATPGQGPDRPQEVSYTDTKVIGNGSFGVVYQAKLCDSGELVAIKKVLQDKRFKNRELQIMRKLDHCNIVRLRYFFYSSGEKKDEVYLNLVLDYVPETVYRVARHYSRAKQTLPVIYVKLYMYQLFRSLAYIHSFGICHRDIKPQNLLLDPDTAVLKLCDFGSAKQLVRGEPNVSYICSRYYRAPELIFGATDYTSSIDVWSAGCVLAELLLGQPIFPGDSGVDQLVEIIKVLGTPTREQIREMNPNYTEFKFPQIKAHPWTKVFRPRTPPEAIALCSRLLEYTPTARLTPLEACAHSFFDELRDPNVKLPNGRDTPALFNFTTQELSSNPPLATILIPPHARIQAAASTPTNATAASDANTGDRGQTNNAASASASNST
T4 sequence (P49841 whole entry): as above
T3 sequence (P49841 whole entry T43A): as the sequence (P49841 whole entry) above, with T43A counted along it
Chain of GSK3α (P49840 whole entry, species assumed): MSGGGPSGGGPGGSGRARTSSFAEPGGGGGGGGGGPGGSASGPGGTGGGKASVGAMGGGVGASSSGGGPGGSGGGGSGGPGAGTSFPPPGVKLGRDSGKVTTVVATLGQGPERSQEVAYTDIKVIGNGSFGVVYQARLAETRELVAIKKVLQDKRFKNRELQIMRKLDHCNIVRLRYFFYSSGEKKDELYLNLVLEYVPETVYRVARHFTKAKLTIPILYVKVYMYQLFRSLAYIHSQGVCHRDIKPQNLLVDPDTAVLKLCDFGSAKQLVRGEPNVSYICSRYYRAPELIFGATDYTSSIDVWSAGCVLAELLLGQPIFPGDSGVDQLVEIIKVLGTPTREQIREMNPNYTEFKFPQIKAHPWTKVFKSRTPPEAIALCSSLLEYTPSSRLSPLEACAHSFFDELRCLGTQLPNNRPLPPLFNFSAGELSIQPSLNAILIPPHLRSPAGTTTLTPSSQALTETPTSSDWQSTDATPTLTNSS
T2 sequence (P49841 whole entry T390A): as the sequence (P49841 whole entry) above, with T390A counted along it

With `C[S+]([O-])c1ccc(-c2nc(-c3ccncc3)c(-c3ccc(F)cc3)[nH]2)cc1` (stereo not drawn) [SB203580], the “phosphorylation of GSK3β by purified recombinant activated p38 MAPK” value with p38 MAPK (FIG. 2E) was “blocked”. Moreover, in the series with p38 MAPK (p38 MAPK from MKK6 thymocytes or MKK6-transfected 293T cells, FIG. 2C), the “phosphorylation of recombinant catalytically-inactive GSK3β by immunoprecipitated p38 MAPK” value is “blocked”. In addition, the “phosphorylation of Ser^9 of GSK3β” value in series [1] was “not affected”. Further, the “phosphorylation of Ser^389” value in [2] is on record as “abrogated”. The “phosphorylation of endogenous GSK3β at Ser^389” value in [3] (embryonic stem (ES) cells) and in series [3] (wild-type mouse embryonic fibroblasts (MEFs)) was “inhibited” in each case. Moreover, the “amount of β-catenin” value in the series on β-catenin is given as “decreased”. The “levels of phospho-Ser^389 GSK3β” value in the series with phospho-Ser^389 GSK3β (brain) and in the series on phospho-Ser^389 GSK3β (thymocytes) was “reduced” each time.

On to `COC[C@H]1OC(=O)c2coc3c2[C@@]1(C)C1=C(C3=O)[C@@H]2CCC(=O)[C@@]2(C)C[C@H]1OC(C)=O` [Wortmanin], for which the “phosphorylation of Ser^9 of GSK3β” value in series [1] is listed as “impaired”.

As to “GRPRTTS(PO3H2)FAE (GRPRTT[pS]FAE) [phospho-Ser^9 peptide]”, in the series with GST-GSK3β [4], the “inhibition of GSK3β in vitro” value is recorded as “specifically inhibits GSK3β in vitro”.

As to “GST-GSK3β-T^43A: purified active GST-GSK3β T^43A mutant”, the specific activity in the series on GSM substrate peptide was found to be 53 µmol/µg/min.

Consider “GST-GSK3β-T^390A: purified active GST-GSK3β T^390A mutant”, for which the specific activity in the series with GSM substrate peptide worked out at 65 µmol/µg/min.

Regarding “GST-GSK3β: purified active wildtype GST-GSK3β fusion protein”, the specific activity with GSM substrate peptide was determined as 91 µmol/µg/min.

With “RIQAAAST(PO3H2)PTN (RIQAAAS[pT]PTN) [phospho-Thr^390 peptide]”, the “GSK3β activity in the presence of peptide” value in the series with GST-GSK3β [5] is “inhibited GSK3β activity”. Also, the “inhibition of GSK3β activity compared with phospho-Ser^9 peptide” value in the series with GST-GSK3β [5] (various concentrations of peptides, FIG. 3H-J) is recorded as “as efficiently as the phospho-Ser^9 peptide”.

Turning to “RIQAAASTPTN [unphosphorylated-Thr^390 peptide, reference compound]”, the “GSK3β activity in the presence of peptide” value in the series with GST-GSK3β [5] is recorded as “did not”.

In the case of “p38 MAPK: recombinant active p38 MAPK (Cell Signaling)”, the results for the “effect on GSK3β activity” value in the series with GSK3β-T^390A mutant, with GSK3β-T^43A mutant and in the series with wild-type GSK3β were “not”, “inhibited” and “inhibited”, respectively. Also, the “effect on GSK3α activity” value with GSK3α is “did not affect; also recorded: does not inhibit”.

B1: Akt: recombinant active Akt (Cell Signaling) (protein)
chain: MNDVAIVKEGWLHKRGEYIKTWRPRYFLLKNDGTFIGYKERPQDVDQRESPLNNFSVAQCQLMKTERPRPNTFIIRCLQWTTVIERTFHVETPEEREEWATAIQTVADGLKRQEEETMDFRSGSPSDNSGAEEMEVSLAKPKHRVTMNEFEYLKLLGKGTFGKVILVKEKATGRYYAMKILKKEVIVAKDEVAHTLTENRVLQNSRHPFLTALKYSFQTHDRLCFVMEYANGGELFFHLSRERVFSEDRARFYGAEIVSALDYLHSEKNVVYRDLKLENLMLDKDGHIKITDFGLCKEGIKDGATMKTFCGTPEYLAPEVLEDNDYGRAVDWWGLGVVMYEMMCGRLPFYNQDHEKLFELILMEEIRFPRTLGPEAKSLLSGLLKKDPTQRLGGGSEDAKEIMQHRFFANIVWQDVYEKKLSPPFKPQVTSETDTRYFDEEFTAQMITITPPDQDDSMECVDSERRPHFPQFSYSASGTA
Regarding B1, the “effect on GSK3β activity” value in the series with GSK3β-T^390A mutant, with GSK3β-T^43A mutant and with wild-type GSK3β was “inhibited” in each case.

These data come from US10052365B2, “Methods and products relating to GSK3β regulation” (University of Vermont and State Agricultural College, priority 2008, dated 2018).
